These results are taken from US20230235013A1 (MABSOLVE, published 2023).

Assay [1] concerns the target T1, Histidine-tagged recombinant human FcγRI (CD64) (human, UniProt P12314 16-288, limits assumed).
T1 construct: bought
Briefly: SPR, His-FcγRI captured; Expt 3.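 Also: biacore T200 SPR at 25 °C, Fc-variant antibodies at 100 µg/mL flowed 1 min over anti-His-captured FcγRI, signal taken just before injection end minus a buffer blank cycle; antibody analyte injected at 100 µg/mL for 1 min.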

Assay [2] has as its target T1, Histidine-tagged recombinant human …. As to the kind of experiment: SPR, His-FcγRI captured; mean.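 Also: biacore T200 SPR at 25 °C, anti-His surface capturing FcγRI, Fc-variant antibodies injected at 100 µg/mL for 1 min, signal near injection end minus third buffer blank, three repeats.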
The target is the same in assay [3]. Briefly: SPR, His-FcγRI captured; Expt 1.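 Also: SPR at 25 °C on anti-His antibody chip capturing FcγRI, Fc-variant antibodies injected at 100 µg/mL for 1 min, signal near end of injection minus buffer blank.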
Experimental: Binding analysis was carried out by surface plasmon resonance at 25° C. using a Biacore® T200 instrument with Biacore® T200 control software. The sample compartment was held at 5° C. The running buffer (HBS-EP+) consisted of 0.01 M HEPES pH 7.4, containing 0.15 M NaCl, 3 mM EDTA, and 0.05% v/v Surfactant P20. Methods were run using the manufacturer's standard method wizards as described in the Biacore® T200 Instrument Handbook.
The cell was activated by treatment with EDC/NHS for 7 min. The antibody was diluted to 10 μg/mL in 10 mM sodium acetate pH 5.0 and injected for 7 min at 5 μL/min. The flow cell was deactivated by injection of 1M ethanolamine for 7 min. This process was repeated in the absence of anti-his antibody on a separate flow cell to generate a reference surface. […] Samples of purified antibodies comprising variant Fc regions (1 mg/mL in PBS) were diluted with running buffer to 100 μg/mL and were injected for 1 min at 30 μL/min and allowed to disassociate for 2 min. Between each cycle, the chip was regenerated by injection of 10 mM glycine pH 3.0 for 0.5 min at a flow rate of 30 μL/min and recharged with a fresh injection of FcγRI. At the beginning of each experiment, three blank cycles were run, with buffer alone being injected instead of test sample. The average SPR signal (relative to the reference cell) was measured in a window approximately 8 to 13 seconds before the injection of test sample (baseline) and approximately 3 to 8 seconds before the end of injection (response). The response of the third of the blank (buffer) samples was subtracted from the response of each test sample in order to allow for any dissociation of the bound FcγRI giving a corrected response for each test sample. The whole experiment was repeated three times with the test samples being analysed in different orders each time.
Assay [4] has the same target. As to the kind of experiment: SPR, His-FcγRI captured; Expt 2. (In general: SPR reads the build-up and loss of mass on a sensor chip optically.)

B1: anti-CD20 human IgG1 L234Q/L235H/G236R (antibody)
heavy: QVQLQQPGAELVKPGASVKMSCKASGYTFTSYNMHWVKQTPGRGLEWIGAIYPGNGDTSYNQKFKGKATLTADKSSSTAYMQLSSLTSEDSAVYYCARSTYYGGDWYFNVWGAGTTVTVSSASTKGPSVFPLAPSSKSTSGGTAALGCLVKDYFPEPVTVSWNSGALTSGVHTFPAVLQSSGLYSLSSVVTVPSSSLGTQTYICNVNHKPSNTKVDKKVEPKSCDKTHTCPPCPAPEQHRGPSVFLFPPKPKDTLMISRTPEVTCVVVDVSHEDPEVKFNWYVDGVEVHNAKTKPREEQYNSTYRVVSVLTVLHQDWLNGKEYKCKVSNKALPAPIEKTISKAKGQPREPQVYTLPPSRDELTKNQVSLTCLVKGFYPSDIAVEWESNGQPENNYKTTPPVLDSDGSFFLYSKLTVDKSRWQQGNVFSCSVMHEALHNHYTQKSLSLSPGK
light: QIVLSQSPAILSASPGEKVTMTCRASSSVSYIHWFQQKPGSSPKPWIYATSNLASGVPVRFSGSGSGTSYSLTISRVEAEDAATYYCQQWTSNPPTFGGGTKLEIKRTVAAPSVFIFPPSDEQLKSGTASVVCLLNNFYPREAKVQWKVDNALQSGNSQESVTEQDSKDSTYSLSSTLTLSKADYEKHKVYACEVTHQGLSSPVTKSFNRGEC
notes: also called 2-29
Consider B1, for which the entries for the “Corrected response (RU)” value in assay [1], in assay [3] and in assay [4] were 8.1 RU, 2.2 RU and 6.7 RU, respectively. Besides, the “Corrected response (RU), Mean” value in assay [2] stood at 5.7 RU.

B2: anti-CD20 human IgG1 L234R/L235D/G236R (antibody)
heavy: QVQLQQPGAELVKPGASVKMSCKASGYTFTSYNMHWVKQTPGRGLEWIGAIYPGNGDTSYNQKFKGKATLTADKSSSTAYMQLSSLTSEDSAVYYCARSTYYGGDWYFNVWGAGTTVTVSSASTKGPSVFPLAPSSKSTSGGTAALGCLVKDYFPEPVTVSWNSGALTSGVHTFPAVLQSSGLYSLSSVVTVPSSSLGTQTYICNVNHKPSNTKVDKKVEPKSCDKTHTCPPCPAPERDRGPSVFLFPPKPKDTLMISRTPEVTCVVVDVSHEDPEVKFNWYVDGVEVHNAKTKPREEQYNSTYRVVSVLTVLHQDWLNGKEYKCKVSNKALPAPIEKTISKAKGQPREPQVYTLPPSRDELTKNQVSLTCLVKGFYPSDIAVEWESNGQPENNYKTTPPVLDSDGSFFLYSKLTVDKSRWQQGNVFSCSVMHEALHNHYTQKSLSLSPGK
light: QIVLSQSPAILSASPGEKVTMTCRASSSVSYIHWFQQKPGSSPKPWIYATSNLASGVPVRFSGSGSGTSYSLTISRVEAEDAATYYCQQWTSNPPTFGGGTKLEIKRTVAAPSVFIFPPSDEQLKSGTASVVCLLNNFYPREAKVQWKVDNALQSGNSQESVTEQDSKDSTYSLSSTLTLSKADYEKHKVYACEVTHQGLSSPVTKSFNRGEC
In the case of B2, the “Corrected response (RU)” value worked out at 4.2 RU in assay [1], 0.4 RU in assay [3] and 0.9 RU in assay [4]. The “Corrected response (RU), Mean” value in assay [2] amounted to 1.8 RU.

B3: anti-CD20 human IgG1 L234Q/L235R/G236R (antibody)
heavy: QVQLQQPGAELVKPGASVKMSCKASGYTFTSYNMHWVKQTPGRGLEWIGAIYPGNGDTSYNQKFKGKATLTADKSSSTAYMQLSSLTSEDSAVYYCARSTYYGGDWYFNVWGAGTTVTVSSASTKGPSVFPLAPSSKSTSGGTAALGCLVKDYFPEPVTVSWNSGALTSGVHTFPAVLQSSGLYSLSSVVTVPSSSLGTQTYICNVNHKPSNTKVDKKVEPKSCDKTHTCPPCPAPEQRRGPSVFLFPPKPKDTLMISRTPEVTCVVVDVSHEDPEVKFNWYVDGVEVHNAKTKPREEQYNSTYRVVSVLTVLHQDWLNGKEYKCKVSNKALPAPIEKTISKAKGQPREPQVYTLPPSRDELTKNQVSLTCLVKGFYPSDIAVEWESNGQPENNYKTTPPVLDSDGSFFLYSKLTVDKSRWQQGNVFSCSVMHEALHNHYTQKSLSLSPGK
light: QIVLSQSPAILSASPGEKVTMTCRASSSVSYIHWFQQKPGSSPKPWIYATSNLASGVPVRFSGSGSGTSYSLTISRVEAEDAATYYCQQWTSNPPTFGGGTKLEIKRTVAAPSVFIFPPSDEQLKSGTASVVCLLNNFYPREAKVQWKVDNALQSGNSQESVTEQDSKDSTYSLSSTLTLSKADYEKHKVYACEVTHQGLSSPVTKSFNRGEC
notes: also called 2-32
Regarding B3, the “Corrected response (RU)” value was 9.4 RU in assay [1], -0.2 RU in assay [3] and 2.6 RU in assay [4]. In assay [2], the “Corrected response (RU), Mean” value amounted to 3.9 RU.
